Results: PMC4453472, “First Glycoside Hydrolase Family 2 Enzymes from Thermus antranikianii and Thermus brockianus with β-Glucosidase Activity” (Frontiers in Bioengineering and Biotechnology, 2015)

What was measured:
Experiment in all cases: purified protein
[1] = tested on: T1, O=[N+]([O-])c1ccc(O[C@@H]2O[C@H](CO)[C@H](O)[C@H](O)[C@H]2O)cc1; type: biochemical, Thermus antranikianii; details: 90°C, 20 mM citrate buffer pH 6.5, 0-25 mM substrate, 10 min
T1 construct: recombinant, pQE-80L (His-tag vector) in E. coli BL21 Star(DE3); heat precipitation and Ni-NTA

[2] = tested on: T2, O=[N+]([O-])c1ccc(O[C@@H]2O[C@H](CO)[C@@H](O)[C@H](O)[C@H]2O)cc1; type: biochemical, Thermus antranikianii; details: 90°C, 20 mM citrate buffer pH 6.5, 0-10 mM substrate, 10 min
T2 construct: recombinant, pQE-80L (His-tag vector) in E. coli BL21 Star(DE3); heat precipitation and Ni-NTA

purified protein [3] = substrate: O=[N+]([O-])c1ccc(O[C@@H]2O[C@H](CO)[C@H](O)[C@H](O)[C@H]2O)cc1; details: 90°C, 20 mM maleate buffer pH 6.5, 0-25 mM substrate, 10 min
purified protein [4] = substrate: O=[N+]([O-])c1ccc(O[C@@H]2O[C@H](CO)[C@@H](O)[C@H](O)[C@H]2O)cc1; details: 90°C, 20 mM maleate buffer pH 6.5, 0-10 mM substrate, 10 min

Molecule	Km [1] [µM]	Vmax [1] [µmol/min/mg]	kcat [1] [s⁻¹]	kcat/Km [1] [M⁻¹ s⁻¹]	Km [2] [µM]	Vmax [2] [µmol/min/mg]	kcat [2] [s⁻¹]	kcat/Km [2] [M⁻¹ s⁻¹]	Km (purified protein [3]) [µM]	Vmax (purified protein [3]) [µmol/min/mg]	kcat (purified protein [3]) [s⁻¹]	kcat/Km (purified protein [3]) [M⁻¹ s⁻¹]	Km (purified protein [4]) [µM]	Vmax (purified protein [4]) [µmol/min/mg]	kcat (purified protein [4]) [s⁻¹]	kcat/Km (purified protein [4]) [M⁻¹ s⁻¹]
TaGH2 (Thermus antranikianii)	2200 ± 20	2615 ± 3	14000	6.36e+06	730 ± 30	4028 ± 21	21600	2.95e+07	–	–	–	–	–	–	–	–
TbGH2 (Thermus brockianus) (protein) RLKSALFLAHPAGEPEALPEEGWREVALPHQWTLEGLEAEVGWYRLTLPEGGPRRFLRSLGDYYQEAWLEGRFLGRHEGYFFPWLLELPPGKELYLRVSAPKEPLGQWPRFKRQIKGVLGQHDCRPGGVSPRGQERGTGGLWGGVEVVFREEVALLHLTHRLHPRPGGWRLLVRLLLDAPRPFAERVLLRLSPENFPGEAWTQEVGLRGDAGRGYREVVWDLPEMPLWEVWERGFPHLFRLEAELAQAQVSAPLGFRTVAWDEEGWLLLNGRRLFLRGTNHIPTQWLAAYSQALAEKDVALLKEAGLNAVRVHAHLTHPVFYEVCDREGVLVWQDFPLQWGYAPDEAFAEEAVRQVRAMVEHYGAHPSIYLWCAQNEPTHNRHALGPLLAAELRAQDPSRLVKEASDFREHPYPGWYWGHFRDFLALPGAPLPSEFGAQALPRAELLRRVLGEAAWPPKWEVWAYHNFQPHETFRVAGVEMGTSLESFVENSQAYQARLLSFAIHVYRRAKGKVVGYFQFLFAEPWEGITWAVLDVERIPKKGFHALKEASSPVLLSLVPYRERLEVGGVPLWEAWLVNDLERPLTLRVALALEGPVALPLWEGEVAVAGGEVRRFFSLGELWESPWEAQERLMRVAEALRRLPPGRYRLVGEAWEGERLWSRQVVELVYLEPLVPPGEAW	–	–	–	–	–	–	–	–	3560 ± 70	1333 ± 11	6680	1.88e+06	500 ± 20	778	3900	7.8e+06
